Data taken from publication PMC3470543, “Effects of the Missense Mutations in Canine BRCA2 on BRC Repeat 3 Functions and Comparative Analyses between Canine and Human BRC Repeat 3” (PLoS ONE, 2012).
Where a chain is given by its changes, count along the chain named.

B1: Gal4-DBD-fused wild-type canine BRC3 [canine] / VP16 transactivation domain-fused human RAD51 [human] (parent complex)
chain 1: GQNIKDFDTFYLSFQTASRKNIRVSKESLNKARSLLNQKWTEEELNNFSDSLNSELLPGIDIKKTDISNHEVI
chain 2: MAMQMQLEANADTSVEEESFGPQPISRLEQCGINANDVKKLEEAGFHTVEAVAYAPKKELINIKGISEAKADKILAEAAKLVPMGFTTATEFHQRRSEIIQITTGSKELDKLLQGGIETGSITEMFGEFRTGKTQICHTLAVTCQLPIDRGGGEGKAMYIDTEGTFRPERLLAVAERYGLSGSDVLDNVAYARAFNTDHQTQLLYQASAMMVESRYALLIVDSATALYRTDYSGRGELSARQMHLARFLRMLLRLADEFGVAVVITNQVVAQVDGAAMFAADPKKPIGGNIIAHASTTRLYLRKGRGETRICKIYDSPCLPEAEAMFAINADGVGDAKD
B2: Gal4-DBD-fused wild-type canine BRC3 [canine] / VP16 transactivation domain-fused canine RAD51 [canine] (parent complex)
chain 1: B1 chain 1
chain 2: B1 chain 2 with N62S, A76T, A194G

Variants of: B1
Test: mammalian two-hybrid assay; HeLa cells; luciferase activity determined 48 h after transfection; n = 3; read off a plot

Variant | response
chain 1 T16P | ~2.2 Firefly/Renilla
chain 1 K26R | ~34 Firefly/Renilla

Variants of: B2
Test: as above

Variant | response
chain 1 T16P | ~3.5 Firefly/Renilla
chain 1 K26R | ~120 Firefly/Renilla
